Source: US20260022364A1, “ERT2 MUTANTS, INDUCIBLE CELL DEATH SYSTEMS, AND USES THEREOF” (Senti Biosciences, Inc., priority 2023, published 2026)

Columns and labels:
[1] = test system: dimerization of two modified ER-LBDs; test: Transcriptional reporter assay for dimerization activity; format: cell-based; conditions: data not shown
NK cells = test: Validation of ERT2 mutants with mCherry reporter in NK cells; format: cell-based; conditions: primary NK cells
Procedure: After 10 days of feeder cell activation, NK cells were co-transduced with ERT2 mutant virus and reporter SB01066 virus (Experimental Set-up 1). On Day 2 after transduction, transduced NK cells were treated with endoxifen or 4-OHT at a range of concentrations of 0 nM, 0.01 nM, 0.1 nM, 1 nM, and 10 nM. On Day 4, cells were checked for mCherry expression by flow cytometry.

B1: SB06136: ZF10-1_p65_ERT2 mutant; L384M/L391V/N413D/M421L/S463P/H524L (protein)
chain: AGDMRAANLWPSPLMIKRSKKNSLALSLTADQMVSALLDAEPPILYSEYDPTRPFSEASMMGLLTNLADRELVHMINWAKRVPGFVDLTLHDQVHLLECAWMEILMIGVVWRSMEHPVKLLFAPNLLLDRDQGKCVEGLVEIFDMLLATSSRFRMMNLQGEEFVCLKSIILLNSGVYTFLPSTLKSLEEKDHIHRVLDKITDTLIHLMAKAGLTLQQQHQRLAQLLLILSHIRHMSNKGMELLYSMKCKNVVPLYDLLLEAADAHRLHAPTSRGGASVEETDQSHLATAGSTSSHSLQKYYITGEAEGFPAT
- dimerization of two modified ER-LBDs to 4-OHT [1]: did not directly alter dimerization
- 4-OHT concentration at which variant was sensitive (mCherry) (NK cells): 0.1 nM
- endoxifen concentration at which variant was sensitive (mCherry) (NK cells): 0.1 nM
